Key:
HDV [1] = settings: cited from earlier work
HDV [2] = test: Phase 2 LIMT study: Lambda for 48 weeks in HDV patients, with two liver-biopsy case reports; type: in vivo, human; set-up: key to fibrosis score (ISHAK) in liver biopsy following Lambda treatment / fibrosis score (ISHAK) in post-treatment biopsy: F5: incomplete cirrhosis; F1: mild portal fibrosis
Text: See also International Application No. PCT/US2019/048038 for description of this therapy. Impact of Lambda therapy on liver histology was not assessed in the LIMT study. In this example, two case reports of regression of liver fibrosis following treatment in HDV patients from the LIMT study are provided.
Two patients from the LIMT study, who had liver biopsies prior to study randomization, treated with subcutaneous injections of Lambda 180 mcg once weekly for 48 weeks, followed by a 24 week follow-up period, were evaluated with liver biopsy 18 months after last Lambda injection. Liver biopsies, staged according to the ISHAK scoring system, were compared with results of historical biopsies of the patients. HDV RNA viral load and ALT levels were assessed at baseline (BL), end of treatment (EOT) and end of study (EOS). Fibroscan® was performed at BL and EOS.
FibroScan is a specialized ultrasound machine that measures fibrosis (scarring) and steatosis (fatty change) in the liver. The Fibroscan device (Echosens) works by measuring shear wave velocity. In this technique, a 50-MHz wave is passed into the liver from a small transducer on the end of an ultrasound probe. The probe also has a transducer on the end that can measure the velocity of the shear wave (in meters per second) as this wave passes through the liver. The shear wave velocity can then be converted into liver stiffness, which is expressed in kilopascals. Essentially, the technology measures the velocity of the sound wave passing through the liver and then converts that measurement into a liver stiffness measurement; the entire process is often referred to as liver ultrasonographic elastography. See additional discussion in Afdhal, N.H., Gastroenterol Hepatol (N Y). 8(9): 605-607 (2012).

HDV [3] = settings: Lambda for 48 weeks; patients with HDV and compensated liver disease; cited from earlier work
HDV [4] = settings: HBV/HDV co-infected mice; four weeks; cited from earlier work
HBV = settings: cited from earlier work

For interferon alfa, the “patients with undetectable HDV RNA” value (HDV [1]; 24 weeks post-treatment follow-up) is given as 0% and the “HDV patients with undetectable HDV RNA” value (HDV [1]; end of 48 weeks treatment, 180 mcg monotherapy, Robogene 2.0 assay) is given as 13%.

B1: Lambda: pegylated form of interferon lambda, a type III interferon signalling through interferon lambda receptors (protein, UniProt Q8IU54 20-200, looked up)
Interferon lambda-1: GPVPTSKPTTTGKGCHIGRFKSLSPQELASFKKARDALEESLKLKNWSCSSPVFPGNWDLRLLQVRERPVALEAELALTLKVLEAAAGPALEDVLDQPLHTLHHILSQLQACIQPQPTAGPRPRGRLHHWLHRLQEAPKKESAGCLEASVTFNLFRLLTRDLKYVADGNLCLRTSTHPEST
modifications: PEG (peginterferon lambda-1a)
notes: pegylated form of interferon lambda, a type III interferon signalling through interferon lambda receptors
For B1, the “HDV RNA level at EOS” value (HDV [2]; Patient 1, 24 week follow-up after 48 weeks Lambda, BL 3.7 log10) was 2.6 log10, the “Fibroscan score at EOS” value (HDV [2]; Patient 1, BL 20 kPa) was 9.9 kPa and the “ALT at EOS” value (HDV [2]; Patient 1, BL 169 U/L) was 54 U/L. For the same molecule, the “ALT at EOT” value (HDV [2]; Patient 1, BL 169 U/L) was 55 U/L, the “HDV RNA level at EOT” value (HDV [2]; Patient 1, Lambda 180 mcg once weekly 48 weeks, BL 3.7 log10) was “undetectable” and the “fibrosis score (ISHAK) in liver biopsy following Lambda treatment” value (HDV [2]; Patient 1, biopsy 18 months after last Lambda injection, historical biopsy F5) was “F1”. For the same molecule, the “HDV RNA at EOS” value (HDV [2]; Patient 2, 24 week follow-up after 48 weeks Lambda, BL 4.9 log10) was 3.6 log10, the “Fibroscan score at EOS” value (HDV [2]; Patient 2, BL 7.7 kPa) was 11.1 kPa and the “ALT at EOS” value (HDV [2]; Patient 2, BL 159 U/L) was 162 U/L. The “ALT at EOT” value (HDV [2]; Patient 2, BL 159 U/L) was 44 U/L, the “HDV RNA at EOT” value (HDV [2]; Patient 2, Lambda 180 mcg once weekly 48 weeks, BL 4.9 log10) was “undetectable” and the “fibrosis score (ISHAK) in post-treatment biopsy” value (HDV [2]; Patient 2, biopsy 18 months after last Lambda injection, historical biopsy F4 (marked bridging fibrosis)) was “F1”. For the same molecule, the “durable virologic response (HDV RNA below limit of quantification at 24 weeks post-treatment)” value (HDV [3]) was 36%, the “reduction in HDV-RNA levels” value (HDV [4]) was 1.5 log and the “difference between pegylated interferon alfa and pegylated interferon lambda treatment” value (HBV; end of the treatment period) was “no difference”. For the same molecule, the “declines in viremia as compared to pegylated interferon alfa” value (HBV; midpoint of treatment (24 weeks)) was “more pronounced declines in viremia” and the virologic rebound (HBV; post-treatment, versus pegylated interferon alfa) was “greater virologic rebound”.
